Molecular target: EGFRvIII (Epidermal Growth Factor Receptor Variant III) (human) (UniProt P00533)
Experiment: cell-based or functional assay

B1: AMG 596 (bispecific antibody, part only; not given: CD3-binding domain; linkers, part only)
chain, part: QVQLVESGGGVVQSGRSLRLSCAASGFTFRNYGMHWVRQAPGKCLEWVAVIWYDGSDKYYADSVRGRFTISRDNSKNTLYLQMNSLRAEDTAVYYCARDGYDILTGNPRDFDYWGQGTLVTVSSDTVMTQTPLSSHVTLGQPASISCRSSQSLVHSDGNTYLSWLQQRPGQPPRLLIYRISRRFSGVPDRFSGSGAGTDFTLEISRVEAEDVGVYYCMQSTHVPRTFGCGTKVEIK
EC20 (in vitro cytotoxic activity): 0.07 ng/mL
EC50 (in vitro cytotoxic activity): 0.41 ng/mL
EC90 (concentration found to produce 90% cytotoxic activity): 1.8 ng/mL

Source: patent US20220411516A1
